Test results: patent publication US20060177907A1 (University of California, published 2006)
Read-outs that look alike come from different tables or passages of the source. One block for each binder: values may come before it.

B1: HER3-ECD^I-II (residues 20-329), recombinant domains I and II of HER3 expressed in Drosophila S2 cells (receptor, not shown: small tags and cut ends)
chain: SEVGNSQAVCPGTLNGLSVTGDAENQYQTLYKLYERCEVVMGNLEIVLTGHNADLSFLQWIREVTGYVLVAMNEFSTLPLPNLRVVRGTQVYDGKFAIFVMLNYNTNSSHALRQLRLTQLTEILSGGVYIEKNDKLCHMDTIDWRDIVRDRDAEIVVKDNGRSCPPCHEVCKGRCWGPGSEDCQTLTKTICAPQCNGHCFGPNPNQCCHDECAGGCSGPQDTDCFACRHFNDSGACVPRCPQPLVYNKLTFQLEPNPHTKYQYGGVCVASCPHNFVVDQTSCVRACPPDKMEVDKNGLKMCEPCGGLCPK
notes: Monomer by light scattering and ultracentrifugation; The N-terminal Drosophila leader comes from the vector; the protein is secreted; also called HER3^I-II; H3 I-II
B2: HER3^I-II V110A (receptor, not shown: small tags and cut ends)
chain: SEVGNSQAVCPGTLNGLSVTGDAENQYQTLYKLYERCEVVMGNLEIVLTGHNADLSFLQWIREVTGYVLVAMNEFSTLPLPNLRVVRGTQAYDGKFAIFVMLNYNTNSSHALRQLRLTQLTEILSGGVYIEKNDKLCHMDTIDWRDIVRDRDAEIVVKDNGRSCPPCHEVCKGRCWGPGSEDCQTLTKTICAPQCNGHCFGPNPNQCCHDECAGGCSGPQDTDCFACRHFNDSGACVPRCPQPLVYNKLTFQLEPNPHTKYQYGGVCVASCPHNFVVDQTSCVRACPPDKMEVDKNGLKMCEPCGGLCPK
notes: also called H3^I-II V110A
B3: HER3^I-II N44A (receptor, not shown: small tags and cut ends)
chain: SEVGNSQAVCPGTLNGLSVTGDAEAQYQTLYKLYERCEVVMGNLEIVLTGHNADLSFLQWIREVTGYVLVAMNEFSTLPLPNLRVVRGTQVYDGKFAIFVMLNYNTNSSHALRQLRLTQLTEILSGGVYIEKNDKLCHMDTIDWRDIVRDRDAEIVVKDNGRSCPPCHEVCKGRCWGPGSEDCQTLTKTICAPQCNGHCFGPNPNQCCHDECAGGCSGPQDTDCFACRHFNDSGACVPRCPQPLVYNKLTFQLEPNPHTKYQYGGVCVASCPHNFVVDQTSCVRACPPDKMEVDKNGLKMCEPCGGLCPK
notes: also called H3 I-II Mutant N44A
B4: trx-hrg, thioredoxin-heregulin fusion with a C-terminal His and S-tag (ligand)
chain: SHLVKCAEKEKTFCVNGGECFMVKDLSNPSRYLCKCPNEFTGDRCQNYVMASFYKHLGIEF
notes: Made as in Landgraf et al. 1998; also called S-tagged hrg; immobilized hrg; not shown: thioredoxin; C-terminal His tag and S-tag

Tests used:
[1] = biological target: B4; test: SPR, trx-hrg immobilized (68 nM) compared with HER3-ECD^I-IV (2.3 nM)
Protocol: (§1) Trx-hrg (13 μM) in MES buffer (100 mM pH 6.0) was immobilized on a BIAcore CM5 chip using standard N-hydroxysuccinimide/1-ethyl-3-(3-dimethylaminopropyl)carbodiimide amine-coupling chemistry. The surface of the chip was blocked with ethanolamine and could be regenerated with 5.0 M NaCl and washes with running buffer (PBS+surfactant). HER3-ECD^I-II (filtered through a 0.1-μm filter unit (Millipore, Bedford, Mass.)) in running buffer was applied to the chip at various concentrations (in triplicate) to determine the dissociation constant. Data were analyzed with the BIAevaluation software. Competition experiments were carried out using hrg at an equimolar concentration to HER3-ECD^I-II.
(§2) To further confirm that HER3-ECD^I-II binds hrg, we analyzed the interaction by SPR (BIAcore). Trx-hrg fusion protein was immobilized on a BIAcore chip for these measurements. […] This interaction could be inhibited by stoichiometric concentrations of hrg.

[2] = biological target: B4; test: SPR (BIAcore), immobilized trx-hrg
[3] = biological target: B4; test: SPR (BIAcore), immobilized trx-hrg
HER3^I-II E43A = biological target: T1, HER3^I-II E43A (human, UniProt P21860 20-329); test: SPR (BIAcore), immobilized trx-hrg
T1 construct: also called H3 I-II Mutant E43A
T1 sequence (P21860 20-329 E43A): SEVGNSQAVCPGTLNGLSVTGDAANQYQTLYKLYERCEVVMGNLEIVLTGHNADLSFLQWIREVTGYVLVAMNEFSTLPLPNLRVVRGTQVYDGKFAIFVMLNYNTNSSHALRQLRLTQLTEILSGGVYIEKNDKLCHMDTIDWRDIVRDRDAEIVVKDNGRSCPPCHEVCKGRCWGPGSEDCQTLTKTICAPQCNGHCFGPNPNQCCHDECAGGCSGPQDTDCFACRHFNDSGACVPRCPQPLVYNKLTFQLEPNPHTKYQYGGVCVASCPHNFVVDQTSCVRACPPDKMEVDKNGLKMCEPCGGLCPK

HER3^I-II N44A = biological target: B3; test: SPR (BIAcore), immobilized trx-hrg
HER3^I-II V66A = HER3^I-II V66A (human, UniProt P21860 20-329); test: SPR (BIAcore), immobilized trx-hrg
HER3^I-II K51A = biological target: T2, HER3^I-II K51A (human, UniProt P21860 20-329); test: SPR (BIAcore), immobilized trx-hrg
T2 construct: also called H3^I-II K51A

HER3^I-II V110A = biological target: B2; test: SPR (BIAcore), immobilized trx-hrg
[4] = biological target: B1; test: SPR (BIAcore), trx-hrg immobilized, HER3-ECD^I-II in solution
Protocol: as §1, §2

HER3^I-IV E64A [5] = biological target: T3, HER3^I-IV E64A (human, UniProt P21860 20-643); test: pull-down on trx-hrg-coupled S-protein agarose
T3 construct: also called H3^I-IV E64A
Protocol: (§3) FIG. 12. […] HER3^I-IV and the HER3^I-IV mutants were analyzed on a native Phast gel (10-15%) in the absence (−) and presence (+) of equimolar hrg. The HER3^{I-IV E64A} was also analyzed in the absence (lane 2) and presence (lane 4) of hrg. Formation of a hrg-HER3^I-IV complex is observed with HER3^I-IV, but not with […], B, HER3^I-IV and HER3^{I-IV E64A} were analyzed in a “pull down assay” in which S-tagged hrg was immobilized on S-protein resin (lanes 4-9) and HER3^I-IV could be specifically eluted with 1 μM hrg and detergent (lane 6 and 8), but HER3^{I-IV E64A} could not be eluted with PBS or 1 μM hrg (lanes 5 and 7). A small amount of HER3^{I-IV E64A} could be eluted with detergent (lane 9) which was probably due to some binding or non-specific interaction.
To confirm that HER3^I-IVE64A has decreased binding affinity for hrg, we used a “pull down” assay in which we measured the HER3^I-IV and HER3^I-IVE64A that could be dissociated from immobilized thioredoxin-heregulin (trx-hrg) by the addition of hrg. Using trx-hrg coupled S-protein agarose, HER3^I-IV was eluted with hrg and detergent (FIG. 12B, lanes 6 and 8), but not with PBS (FIG. 12B, lane 4). No HER3^{I-IV E64A} could be recovered by elution with PBS, hrg or detergent (FIG. 12B, lanes 5, 7 and 9).

[6] = biological target: HER3^II-CTD (residues 184-1342), transiently expressed on COS 7 cells (human, UniProt P21860 184-1342); test: specific binding of radio-iodinated hrg to COS 7 cells transiently expressing the HER3 construct
Chain of HER3^II-CTD (residues 184-1342), transiently expressed on COS 7 cells (P21860 184-1342 E560G/E1064G): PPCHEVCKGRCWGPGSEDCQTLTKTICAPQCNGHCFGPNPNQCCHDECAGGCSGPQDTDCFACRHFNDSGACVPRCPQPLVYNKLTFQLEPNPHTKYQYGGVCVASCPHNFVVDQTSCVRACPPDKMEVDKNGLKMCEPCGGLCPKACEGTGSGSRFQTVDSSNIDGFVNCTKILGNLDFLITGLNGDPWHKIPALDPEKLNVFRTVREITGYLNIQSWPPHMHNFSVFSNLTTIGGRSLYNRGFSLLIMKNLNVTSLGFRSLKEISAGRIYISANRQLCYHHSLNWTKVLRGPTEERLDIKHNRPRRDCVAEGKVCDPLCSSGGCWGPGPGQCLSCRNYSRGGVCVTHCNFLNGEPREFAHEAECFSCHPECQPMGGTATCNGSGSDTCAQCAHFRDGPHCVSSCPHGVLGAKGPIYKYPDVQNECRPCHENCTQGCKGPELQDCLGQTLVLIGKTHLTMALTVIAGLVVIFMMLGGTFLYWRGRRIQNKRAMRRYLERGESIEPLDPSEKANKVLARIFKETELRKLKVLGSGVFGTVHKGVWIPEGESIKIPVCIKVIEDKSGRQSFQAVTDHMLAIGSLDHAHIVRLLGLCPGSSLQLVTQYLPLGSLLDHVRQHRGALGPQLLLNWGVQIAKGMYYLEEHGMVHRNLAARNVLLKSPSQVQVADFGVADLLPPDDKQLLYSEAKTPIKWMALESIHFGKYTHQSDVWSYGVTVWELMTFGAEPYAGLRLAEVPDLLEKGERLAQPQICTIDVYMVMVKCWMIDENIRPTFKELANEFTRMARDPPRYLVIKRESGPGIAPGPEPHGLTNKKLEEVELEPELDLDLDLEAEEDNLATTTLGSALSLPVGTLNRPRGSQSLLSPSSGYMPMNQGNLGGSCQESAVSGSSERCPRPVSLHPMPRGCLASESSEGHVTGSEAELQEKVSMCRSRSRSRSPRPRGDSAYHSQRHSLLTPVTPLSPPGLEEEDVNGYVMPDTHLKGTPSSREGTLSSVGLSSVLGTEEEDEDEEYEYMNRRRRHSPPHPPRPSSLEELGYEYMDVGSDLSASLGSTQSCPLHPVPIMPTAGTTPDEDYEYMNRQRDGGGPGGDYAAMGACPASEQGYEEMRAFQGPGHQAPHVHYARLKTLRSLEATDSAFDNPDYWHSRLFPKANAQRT

[7] = biological target: HER3^FL E64A (residues 20-1342 with a mutation of E64A), transiently expressed on COS 7 cells (human, UniProt P21860 20-1342); test: as above
[8] = biological target: T4, HER3-ECD^I-IV, soluble extracellular domains of recombinant HER3 purified from Chinese hamster ovary cells (human, UniProt P21860 20-643); test: method not given; compared with the Kd of HER3-ECD^I-II (68 nM); form of hrg not stated
T4 construct: also called nonproteolyzed HER3-ECD^I-IV

[9] = biological target: T4, HER3-ECD^I-IV, soluble extracellular …; test: method not given; given as the reference for the SPR value of HER3-ECD^I-II (68 nM, trx-hrg immobilized); form of hrg not stated
HER3^I-IV E64A [10] = biological target: T3, HER3^I-IV E64A; test: native gel mobility shift
Protocol: as §3
To determine the effects of cleavage of HER3^I-IV on its ability to bind hrg, a gel mobility shift assay was performed. […] (FIG. 12A).

Binder: B1
- fold lower binding affinity than HER3-ECD^I-IV [1]: 30 fold

Binder: B2
- fold increase in binding affinity (against HER3^I-II) [2]: 5 fold
- fold increase in binding affinity (against HER3^I-II) [3]: 4 fold

Binder: B3
- fold decrease in binding affinity (against HER3^I-II) [3]: 1.5 fold

Binder: B4
- Kd (HER3^I-II E43A): 63 nM
- Kd (HER3^I-II N44A): 95.5 nM
- Kd (HER3^I-II V66A): 60.5 nM
- Kd (HER3^I-II K51A): 63 nM
- Kd (HER3^I-II V110A): 15.4 nM
- Kd [4]: 68 nM
- koff [4]: 0.00727 s⁻¹
- kon [4]: 107000 M⁻¹ s⁻¹
- binding result (HER3^I-IV E64A [5]): no binding

- binding result [6]: no binding
- binding result [7]: no binding
- Kd [8]: 1.9 nM
- Kd [9]: 2.3 nM
- binding result (HER3^I-IV E64A [10]): no binding (tested: 1:1 molar ratio)
B5: hrg, 60-residue EGF-like domain of human heregulin beta1 (residues 177-237) (ligand)
chain: SHLVKCAEKEKTFCVNGGECFMVKDLSNPSRYLCKCPNEFTGDRCQNYVMASFYKHLGIEF
notes: also called I^25 hrg
